Target: human recombinant TGFβ1 (Peprotech) (human) (UniProt P01137)
Test: cell-based or functional assay

Chain of human recombinant TGFβ1 (Peprotech) (human) (P01137 279-390 limits assumed): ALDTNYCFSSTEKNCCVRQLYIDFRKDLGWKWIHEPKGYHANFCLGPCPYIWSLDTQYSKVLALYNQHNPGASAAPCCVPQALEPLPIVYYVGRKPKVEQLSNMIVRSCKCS

Substance: BM2, ectodomain of TGFβ receptor II (TGFβRII) with transmembrane and intracellular domains of CD137 (from UniProt P37173 23-166; Q07011 187-255)
- fold-change in IFNy secretion, sub-optimal aCD3/aCD28 beads (1:300) + 10 ng/ml TGFβ versus beads alone: 1.9 fold
- fold-change in IFNy secretion, αCD3/αCD28 beads (1:100) + 10 ng/ml TGFβ versus beads alone: 1.2 fold

Substance: BM3, truncated version of TGFβRII (from UniProt P37173 23-199) (receptor)
- fold-change in IFNy secretion, sub-optimal aCD3/aCD28 beads (1:300) + 10 ng/ml TGFβ versus beads alone: 0.7 fold
- fold-change in IFNy secretion, αCD3/αCD28 beads (1:100) + 10 ng/ml TGFβ versus beads alone: 0.87 fold
